Laboratory results from PMC6764022 (ACS Nano, 2019).
Bridges are numbered along the chain shown (N, C = ends). Roman numbers before positions name the chains, in order. Where no end group is shown, it is not given here. [ ]: non-standard residue; d: D form. Lys(N3) = [N-]=[N+]=NCCCC[C@H](N)C(=O)O

Experiments:
[1] = Sedimentation equilibrium analytical ultracentrifugation (AUC); type: physicochemical; conditions: PBS, 20 °C; for Oligomeric state (Table S3), reduced / MWAUC (Table S3), reduced: 10 fold excess of TCEP; for Oligomeric state (Table S3), reduced / MWAUC (Table S3), reduced / Oligomeric state (Table S3) / oligomeric state by AUC, in words: 55 μM; for MWAUC (Table S3), reduced: 280 nm (235 nm for the KE peptides); for MWAUC (Table S3): 55 μM each, 44–60 krpm, single ideal species, 280 nm (235 nm for CC-Di-KE), performed once, 99% confidence limits in separate column; for Oligomeric state (Table S3): single run
[2] = test system: ssDNA tags; assay: CD test of interaction of peptides with ssDNA tags; type: binding; conditions: CD spectra (Figure S6a,b)
Source text: Peptide modelling. Parametric models for all six combinations of CC-Di-EK and CC-Di-KE as hetero and homodimeric parallel and antiparallel coiled coils were generated using ISAMBARD (https://github.com/woolfson -group/isambard).1 These were optimized for BUDE Interaction Energy in ISAMBARD using a genetic algorithm which generated 30,000 models per combination over 3 0 generations with 1,000 models in each. To ensure that we generated useful models, we restricted geometric parameters to values consistent with coiled -coil dimers. For both the parallel and antiparallel […]
z shift = 0 ± 5 Å. Optimizations were repeated three times for each combination.
Peptide purification. […]
(§1) Exceptions were CC-Di-EK-Z and Z-CC-Di-KE, the masses of which were confirmed by infusing sample from an Advion Nanomate Triverser (Nanospray source) at 1.4 kV into a Waters Synapt G2S IMS Q -TOF mass spectrometer. Peptide purity was determined to be >95% using a JACSO HPLC system set up with an analytical reverse phase Phenomenex Kinete x C18 column (5  µM particle size; 100 Å pore size; 100 x 4.6 mm) running linear gradients of buffer B vs. buffer A.
(§2) Peptide Concentration determinations. Peptide concentrations were determined in H 2O by UV-vis absorption at 280 nm on a Nanodrop 2000 (Thermo Scientific) using the following extinction coefficients: […]

[3] = CD spectra and thermal unfolding; type: physicochemical; conditions: 5 °C, 50 μM, neutral pH (PBS pH 7.4)
Method: Figure 1 Biophysical characterization of the coiled-coil heterodimer formed between charge-neutral peptides CC-Di-EK and CC-Di-KE. (a) CD spectra recorded at 5 °C and (b) thermal unfolding (filled symbols, solid line) and refolding (open symbols, dashed line) profiles, monitored through the CD signal at 222 nm, of the individual peptides CC-Di-EK (red, circles) and CC-Di-KE (blue, squares) and of an equimolar mixture of CC-Di-EK:KE (purple, triangles). The average of the spectra of the individual peptides is shown in black (no symbols). […] Representative data from a minimum of three replicates are shown. Conditions: each peptide 50 μM in PBS (pH 7.4), 1 mm path length quartz cuvette. […]
as §1, §2

[4] = biological target: T1, CC-Di-KE (N-terminal acetylation (methods, said of the peptides in general)); assay: circular dichroism thermal unfolding, concentration dependence of TM; Kd for heterodimerization estimated from the concentration dependence of the TM of free peptides in solution; conditions: both partners purified
T1 chain: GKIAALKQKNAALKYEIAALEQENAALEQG

[5] = biological target: the molecule itself; assay: AUC; sedimentation equilibrium, 55 µM of each peptide in PBS pH 7.4, 20 °C, 44-60 krpm, fits to a single ideal species
[6] = biological target: the molecule itself; assay: counting of free and bound DNA origami nanostructures in electron micrographs (TEM); peptides displayed on DNA origamis A and B through oligonucleotide tags; gel-purified An and Bn mixed, total monomer concentrations 0.25-2.4 nM; background of random coincidences subtracted; Kd from the slope of a linear fit through the origin; additional systematic error of approximately 20%
[7] = biological target: the molecule itself; assay: AUC; sedimentation equilibrium, 55 µM of each peptide in PBS, 20 °C, with TCEP reducing agent (10-fold excess; for the pair 5-fold relative to total peptide), fits to a single ideal species
[8] = biological target: the molecule itself; assay: AUC; sedimentation equilibrium of the disulfide-linked heterodimers, 55 µM in PBS, 20 °C, 24-39 krpm in 3 krpm steps (colour key of Figure S3 o, p), fits to a single ideal species

## Ac-CGG KIAALKQ KNAALKY EIAALEQ ENAALEQ G-NH2 (Ac-CGGKIAALKQKNAALKYEIAALEQENAALEQG-NH2) [C-CC-Di-KE, CC-Di-KE with N-terminal Cys]
[1]
  Oligomeric state (Table S3), reduced: 0.92 x monomer
  MWAUC (Table S3), reduced: 3126 Da

## Ac-G LEQ EIAALEQ KNAALKW KIAALKQ G-NH2 [CC-Di-EN3.5, 3.5-heptad coiled-coil peptide]
[1]
  MWAUC (Table S3): 2982 Da
  Oligomeric state (Table S3): 1.04 x monomer

## Ac-G EIAALEQ ENAALEQ KIAALKW KNAALKQ GC-NH2 (Ac-GEIAALEQENAALEQKIAALKWKNAALKQGC-NH2) [CC-Di-EK-C, CC-Di-EK with C-terminal Cys]
[1]
  Oligomeric state (Table S3), reduced: 1.04 x monomer
  MWAUC (Table S3), reduced: 3474 Da

## Ac-G KIAALKQ KNAALKY EIAALEQ ENAALEQ G-NH2 (Ac-GKIAALKQKNAALKYEIAALEQENAALEQG-NH2) [CC-Di-KE, charge-neutral coiled-coil peptide, partner of CC-Di-EK]
[2]
  interaction with ssDNA tags: no interaction
[1]
  MWAUC (Table S3): 3096 Da
  Oligomeric state (Table S3): 0.96 x monomer
  oligomeric state by AUC, in words: monomers
[3]
  folding state by CD: either largely or fully unfolded

## Ac-G EIAALEQ ENAALEQ KIAALKW KNAALKQ GC-NH2 | Ac-G KIAALKQ KNAALKY EIAALEQ ENAALEQ GC-NH2 (disulfide) [CC-Di-EK-C | CC-Di-KE-C, obligate heterodimer linked by disulfide via both C-termini]
[1]; 24–39 krpm (Figure S3 o, p)
  Oligomeric state (Table S3), disulfide-linked heterodimer: 1.00 x obligate dimer
[1]; 24–39 krpm (Figure S3 o, p), 280 nm
  MWAUC (Table S3), disulfide-linked heterodimer: 6695 Da

## Ac-G KIAALKQ KNAALKY EIAALEQ ENAALEQ GC-NH2 (Ac-GKIAALKQKNAALKYEIAALEQENAALEQGC-NH2) [CC-Di-KE-C, CC-Di-KE with C-terminal Cys]
[1]
  Oligomeric state (Table S3), reduced: 0.92 x monomer
  MWAUC (Table S3), reduced: 3062 Da

## Ac-CGG EIAALEQ ENAALEQ KIAALKW KNAALKQ G-NH2 (Ac-CGGEIAALEQENAALEQKIAALKWKNAALKQG-NH2) [C-CC-Di-EK, N-terminally Cys-labelled CC-Di-EK]
[1]
  Oligomeric state (Table S3), reduced: 1.96 x monomer
  MWAUC (Table S3), reduced: 6683 Da
  oligomeric state by AUC, in words: exists as a dimer in solution even under reducing conditions

## Ac-G EIAALEQ KNAALKW KIAALKQ G-NH2 (Ac-GEIAALEQKNAALKWKIAALKQG-NH2) [CC-Di-EN3, 3-heptad coiled-coil peptide]
[1]
  MWAUC (Table S3): 2369 Da
  Oligomeric state (Table S3): 0.95 x monomer

## Ac-G EIAALEQ ENAALEQ KIAALKW KNAALKQ G-NH2 (Ac-GEIAALEQENAALEQKIAALKWKNAALKQG-NH2) [CC-Di-EK, charge-neutral coiled-coil peptide, four heptads, asparagines at two a sites]
[2]
  interaction with ssDNA tags: no interaction
[1]
  MWAUC (Table S3): 3274 Da
  Oligomeric state (Table S3): 1.00 x monomer
  oligomeric state by AUC, in words: monomers
[3]
  folding state by CD: either largely or fully unfolded

## Ac-G EIAALEQ EIAALEQ KNAALKW KIAALKQ G-NH2 (Ac-GEIAALEQEIAALEQKNAALKWKIAALKQG-NH2) [CC-Di-EN4, 4-heptad coiled-coil peptide withone asparagine]
[1]
  MWAUC (Table S3): 6079 Da
  Oligomeric state (Table S3): 1.87 x monomer

B1: CC-Di-EK (peptide)
chain: Ac-GEIAALEQENAALEQKIAALKWKNAALKQG-NH2
[4]
  Kd: 102 ± 26 nM

B2: CC-Di-EN4 (peptide)
peptide: Ac-GEIAALEQEIAALEQKNAALKWKIAALKQG-NH2
[5]
  stoichiometry N: 1.87 x monomer

B3: B3: DNA origami B decorated with three β-CC-Di-KE (other)
chain: [Lys(N3)]GKIAALKQKNAALKYEIAALEQENAALEQG-NH2
modifications: also: tag β hybridised to handle of DNA origami B, three copies per origami
[6]
  Kd: 20 ± 3 nM

B4: C-CC-Di-EK (peptide)
peptide: Ac-CGGEIAALEQENAALEQKIAALKWKNAALKQG-NH2
[7]
  stoichiometry N: 1.96 x monomer

B5: CC-Di-EK-C disulfide-linked to C-CC-Di-KE (opposite ends) (complex)
peptide 1: Ac-GEIAALEQENAALEQKIAALKWKNAALKQGC-NH2
peptide 2: Ac-CGGKIAALKQKNAALKYEIAALEQENAALEQG-NH2
modifications: disulfide I:31-II:1
[8]
  stoichiometry N: 2.6 x obligate dimer
